From patent US9249224B2 (RINAT NEUROSCIENCE CORP., priority 2011, dated 2016)
Where “and” joins values, the source holds several entries; their conditions need not be identical. Equal entries are not always repeated.

Columns and labels:
cyno GHR = assay: Biacore kinetics and affinity, captured IgG, cyno GHR analyte, 25° C.; assay type: binding, cynomolgus monkey; details: IgG immobilized by capture
Protocol: The affinity of a mouse anti-GHR antibody, Ab13, to human and cyno GHR was measured on a Biacore™ 2000 biosensor (GE Lifesciences™, Piscataway N.J.). An anti-mouse Ig sensor surface was prepared using a Biacore™ CM5 chip and reagents from the Biacore™ mouse antibody capture kit (GE Lifesciences™, Catalog# BR-1008-38), using instructions provided by the manufacturer.
The kinetics assay was run using a kinetic titration methodology as described in Karlsson et al., 2006, Anal. Biochem 349, 136-147. The mouse antibody, Ab13, was captured onto downstream flow cells at 0.5 μg/mL at a flow rate of 5 μL/min for 1 minute, 2 minutes and 4 minutes on flow cells 2, 3 and 4 respectively. Flow cell 1 was used as a reference surface. […]
The affinities of a humanized GHR antibody, SS1, and a chimeric molecule comprising the Fab of Ab13 fused to a human Fc domain (“Ab13-hFc”) to human and cyno GHR was measured on a Biacore™ 2000 biosensor (GE Lifesciences™ Piscataway N.J.). […]
The kinetics assay was run using a methodology with varying dissociation times as described in Katsamba et al., 2006, Anal. Biochem 352, 208-221. […] After the analyte injection, dissociation was monitored for 30 minutes (for the 400 nM GHR cycle) or 30 seconds (all other cycles) followed by regeneration of all flow cells with two 30-second injections of 75 mM phosphoric acid. […]

human GHR = molecular target: T1, human GHR (Homo sapiens, UniProt P10912, I544L); assay: STAT5 phosphorylation in vitro assay, human GHR-transfected HEK293 cells; assay type: cell-based; details: for fluorescent signal ave (phospho-STAT5): Table 7, human GHR-transfected cells
T1 construct: expressed in transfected cells; host or cells: HEK293
T1 sequence (P10912 19-638 I544L): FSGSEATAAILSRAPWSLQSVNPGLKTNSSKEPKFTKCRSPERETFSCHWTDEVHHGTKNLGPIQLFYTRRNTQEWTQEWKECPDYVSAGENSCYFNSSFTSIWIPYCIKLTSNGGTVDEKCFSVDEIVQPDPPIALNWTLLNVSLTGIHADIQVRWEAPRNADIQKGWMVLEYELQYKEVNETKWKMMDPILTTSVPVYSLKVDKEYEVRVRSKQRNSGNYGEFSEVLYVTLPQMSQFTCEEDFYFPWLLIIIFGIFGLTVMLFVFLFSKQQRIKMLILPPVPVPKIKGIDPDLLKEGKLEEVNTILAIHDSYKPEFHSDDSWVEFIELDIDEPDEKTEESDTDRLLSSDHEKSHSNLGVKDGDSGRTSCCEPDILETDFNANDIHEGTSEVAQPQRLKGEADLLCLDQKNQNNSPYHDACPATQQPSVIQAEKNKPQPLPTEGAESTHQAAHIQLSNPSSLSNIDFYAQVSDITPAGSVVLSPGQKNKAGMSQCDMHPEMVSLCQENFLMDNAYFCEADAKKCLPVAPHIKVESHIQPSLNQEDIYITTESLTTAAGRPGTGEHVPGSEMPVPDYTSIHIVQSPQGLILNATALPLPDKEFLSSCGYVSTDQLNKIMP
Protocol: This Example illustrates the effect of GHR antibodies in an in vitro STAT5 phosphorylation assay. In this Example, the ability of GHR antibodies to block GHR downstream signaling was tested in vitro using human GHR overexpressing cells and cyno GHR overexpressing cells. […]
Antibodies SS3 and SS1 (hIgG2Δa) were tested using a STAT5 phosphorylation assay. For the STAT5 assay, full-length human GHR overexpressing HEK293 cells or full-length cyno GHR-overexpressing HEK293 cells were cultured, counted by automated cell counter, and seeded in warm freestyle media in 12-well plates (5×10^5 cells/well in 1 ml media). Cells were allowed to settle for 3 hours at 37° C. then treated with 2.5, 5, 50, or 500 nM of SS1 or SS3 in media.
Millipore™ lysis buffer with 1× protease inhibitor cocktail and sodium orthovanadate was added to each pellet at a volume of 100 ul/pellet Cells were vortexed and incubated for 15 minutes at room temp with occasional vortexing, Millipore™ Assay buffer 2 with 1× protease inhibitor cocktail and 1 mM sodium orthovanadate was then added to the lysates at 200 ul/well.
25 ul/well of sample lysate was added to the wells and the beads and samples were incubated overnight at 4′C with shaking in the dark. […]
The plate was read using a Luminex 200 instrument and florescent signal emitted from the samples was measured.

cyno GHR, sequence (as listed by the source): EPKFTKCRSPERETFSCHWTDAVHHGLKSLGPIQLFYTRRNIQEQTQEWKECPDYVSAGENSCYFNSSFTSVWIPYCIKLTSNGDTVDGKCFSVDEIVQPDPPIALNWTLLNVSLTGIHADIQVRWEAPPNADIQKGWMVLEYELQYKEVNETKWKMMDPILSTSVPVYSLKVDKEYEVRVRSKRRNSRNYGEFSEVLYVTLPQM

B1: SS1: humanized GHR antagonist antibody; VL SEQ ID NO: 7, VH SEQ ID NO: 8; hIgG2Δa heavy chain SEQ ID NO: 134, light chain SEQ ID NO: 135 (antibody)
heavy: EVQLVESGGGLVKPGGSLRLSCAASGFTFSDAWMDWVRQAPGKGLEWVAEIRSKANYHATYYAESVKGRFTISRDDSKNTLYLQMNSLKTEDTAVYYCTLIRDYWGQGTLVTVSSASTKGPSVFPLAPCSRSTSESTAALGCLVKDYFPEPVTVSWNSGALTSGVHTFPAVLQSSGLYSLSSVVTVPSSNFGTQTYTCNVDHKPSNTKVDKTVERKCCVECPPCPAPPVAGPSVFLFPPKPKDTLMISRTPEVTCVVVDVSHEDPEVQFNWYVDGVEVHNAKTKPREEQFNSTFRVVSVLTVVHQDWLNGKEYKCKVSNKGLPSSIEKTISKTKGQPREPQVYTLPPSREEMTKNQVSLTCLVKGFYPSDIAVEWESNGQPENNYKTTPPMLDSDGSFFLYSKLTVDKSRWQQGNVFSCSVMHEALHNHYTQKSLSLSPGK
light: EIVLTQSPGTLSLSPGERATLSCTATSSVSSSYLNWYQQKPGQAPRLLIYSTSNLASGIPDRFSGSGSGTDFTLTISRLEPEDFAVYYCHQYHRSTPTFGGGTKVEIKRTVAAPSVFIFPPSDEQLKSGTASVVCLLNNFYPREAKVQWKVDNALQSGNSQESVTEQDSKDSTYSLSSTLTLSKADYEKHKVYACEVTHQGLSSPVTKSFNRGEC
modifications: Humanized and/or affinity matured antibody sequence
- ka (cyno GHR): 89000 M⁻¹ s⁻¹ and 81000 M⁻¹ s⁻¹
- kd (cyno GHR): 0.00011 s⁻¹ and 0.0001 s⁻¹
- fluorescent signal ave (phospho-STAT5) (human GHR; 2.5 nM antibody + 4.5 nM GH): 60
- fluorescent signal ave (phospho-STAT5) (human GHR; 5 nM antibody + 4.5 nM GH): 22
- fluorescent signal ave (phospho-STAT5) (human GHR; 50 nM antibody + 4.5 nM GH): 0
- fluorescent signal ave (phospho-STAT5) (human GHR; 500 nM antibody + 4.5 nM GH): 5
- effect on GH-stimulated STAT5 signaling (human GHR; cells expressing human GHR, 4.5 nM GH): blocked STAT5 signaling in a dose-dependent manner
